The record followed here is the supplement of paper PMC9170038.

The test system of this data set is MS2 coat protein. Description: apparent KD of MS2 coat protein; designed switch direction (-1 OFF switch, 1 ON switch): -1; higher = weaker reporter binding. Put shortly:
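An oligonucleotide input, 200 uM small-molecule ligand, or no input was present during titration of SNAP-549-labelled MS2 coat protein, which was doubled from 0.7 or 1.5 nM to 3 µM. Designed RNA switches had been transcribed on Illumina chips by stalled E. coli RNA polymerase. Apparent KD per design is the median over clusters of curves fitted to normalised cluster fluorescence.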

Where [1] appears, read: Eterna round: R95, input ligand: FMN 200 uM.
[2] abbreviates: Eterna round: R95, input ligand: microRNA oligo, concentration not stated.
Setting [3] is: Eterna round: R95, input ligand: none.
Where [4] appears, read: input ligand: microRNA oligo, concentration not stated.

Turning to “UAUUAGCAAGCAAGAUCCUACAUGAGGAUCACCCAUGUGCUCGUCUUAAGCUCAGAAUUACUGAGCGCUCGUCUUAU [Winner reversed engineered 23] (Eterna round: R97, puzzle: Sensor, turn-off variant 1)”, the “apparent KD of MS2 coat protein” value runs as follows: (input ligand: FMN 200 uM) 468 nM; (input ligand: none) 645 nM.

On to “GAUUAUGCGAGCUUUAGGGACAUGAGGAUCACCCAUGUUCGUCUUAUUAGUCUGGGUACGCUAACAUACCUAAAUCU [JMF 43] (puzzle: Sensor v3, turn-off variant 1)”, for which the “apparent KD of MS2 coat protein” value was 30.1 nM under setting [1], 41.4 nM under setting [2] and 28.7 nM under setting [3].

On to “CUUAGACAUGAGGAUCACCCAUGUGAGGAUAUGAUGCGAAUAAGGAAGGAAGAAAGCAUCAGAAGGCACAUAUG [Mat - Mod of Hyphema D25] (puzzle: Exclusion 1)”, for which the “apparent KD of MS2 coat protein” value stood at 161 nM under setting [1], 139 nM under setting [2] and 104 nM under setting [3].

In the case of “UGUAUACAUGAGGAUCACCCAUGUAAGGAUAUGCUUUAUUAUUAUUAUUAUUAUUGUUGCAGAAGGUACAUUAU [LRO-Excl01-07] (Eterna round: R97, puzzle: Exclusion 1)”, the “apparent KD of MS2 coat protein” value came to 26.4 nM (input ligand: FMN 200 uM) and 25.6 nM (input ligand: none).

As for “GAAAAGGUAGGAUAUACGAAAAAAAAGGGUAGAAAAAAAACACAUGAGGAUCACCCAUGUAGAAGGACCAAAGG [salish99_ex2_r3_040] (puzzle: Exclusion 2)”, the “apparent KD of MS2 coat protein” value is, setting by setting: under setting [1], 46.3 nM; under setting [2], 28.5 nM; under setting [3], 26 nM.

Turning to “UAAUAGGCAGGAUAUACAUGAGGAUCACCCAUGUAAAUUUUUCGUUUAACUUGAAUGUGUAGAAGGGCCAUAAA [Ex3 #53] (Eterna round: R97, puzzle: Exclusion 3)”, the “apparent KD of MS2 coat protein” value (input ligand: FMN 200 uM) amounted to 20.6 nM and the “apparent KD of MS2 coat protein” value (input ligand: none) was determined as 22.6 nM.

Regarding “AUUAUAAAUGUAGGAUAUCUGCACGUGUAGUGCAGAGAAGGACAUGAGGAUCACCCAUGUAGAUCAAUAAUAAUUAAUUUAAUU [ENG1/5-B3] (Eterna round: R96, puzzle: Exclusion NG 1)”, the “apparent KD of MS2 coat protein” value worked out at 223 nM (input ligand: FMN 200 uM), 33.4 nM under setting [4] and 49.2 nM (input ligand: none).

For “UACGAACUAGGAUAUGCAAAGGGCUCGCUUUCCUUCGAUAAACUUGAGGAUCACCCAAGUAGAAGGAGUUUGUA [Mod 39 - Jieux - Exclusion 2] (Eterna round: R97, puzzle: Exclusion 2)”, the “apparent KD of MS2 coat protein” value is 30.2 nM (input ligand: FMN 200 uM) and 11.4 nM (input ligand: none).

Take “GGCACACAUGUAGGAUAUCUGCACGAUUAGUGCAGAGAAGGACAUGAGGAUCACCCAUGUAAUUAAGAUCAAUUAUUAAGUGCC [ENG1/3-A1] (Eterna round: R96, puzzle: Exclusion NG 1)”: the “apparent KD of MS2 coat protein” value came to 468 nM (input ligand: FMN 200 uM), 50 nM under setting [4] and 54.6 nM (input ligand: none).

Regarding “GUGUUGGUAGGAUAUCCACCGACAAACAUGAGGAUCACCCAUGUGACGCUCCCUUGUCUUGGAGAAGGGCCGGCAU [Riritequla] (puzzle: Exclusion 5)”, the “apparent KD of MS2 coat protein” value under setting [2] came to 42.4 nM.

For the sequence “CUUUUGUGAGGAUAUCAGUAGUAAUAAAAUAAAAUAACUACUGAGAAGGCACAUGAGGAUCACCCAUGUUCCUC [Mat - Exclusion 4 - Mod of Salish - D72] (puzzle: Exclusion 4)”, the “apparent KD of MS2 coat protein” value under setting [2] turned out to be 30 nM.

For “UUUUUCAAGCCAGAUCCUCACAUGAGGAUCACCCAUGUGCUCGUCUGUUUUCGCACUAUCACGUUUGUGAUAGUGCU [Level Boss var2-11] (puzzle: Sensor v3, turn-off variant 1)”, the “apparent KD of MS2 coat protein” value turned out to be 297 nM under setting [1], 17.7 nM under setting [2] and 307 nM under setting [3].

As for “AAUAAGUUAGGAUAUACAUGAGGAUCACCCAUGUCCCACCCGUUACCUAUGACCAUAUGUAGAAGGAGCAAUAA [Exy#2] (Eterna round: R97, puzzle: Exclusion 3)”, the “apparent KD of MS2 coat protein” value came out at 62.1 nM (input ligand: FMN 200 uM) and 32.7 nM (input ligand: none).

For “GAUUGACAUGAGGAUCACCCAUGUGAGGAUAUCGGCUGGACCGUGUUGGCUUGCUUUCCGAGAAGGCGCAUAGG [Exclusion 1 V50] (puzzle: Exclusion 1)”, the “apparent KD of MS2 coat protein” value was 81.7 nM under setting [1], 36.9 nM under setting [2] and 45.9 nM under setting [3].

Regarding “GCAGGAUAAGUGAGGAUAUACCUAUGGAUACAUAGGUAGAAGGCACAUGAGGAUCACCCAUGUUCCUUGCCUGC [Fiskers BMX 4 - 67] (puzzle: Brourd's mod of Exclusion 4)”, under setting [2], the “apparent KD of MS2 coat protein” value worked out at 13.2 nM.

For the sequence “ACUUAUCAUGUAGGAUAUGCGUGGCGAAGCUAUGCAGAAGGACAUGAGGAUCACCCAUGUUUUAGCGUCUGCGUACAGAUGCGU [JL ENG1 1.45] (Eterna round: R96, puzzle: Exclusion NG 1)”, under setting [4], the “apparent KD of MS2 coat protein” value was 39 nM.

For “UAUUAGCAAGUAAGAUCCCACAUGAGGAUCACCCAUGUGCUCGUCAUAUCAGGUACGGAGCGGAAACUCACGGUACG [Sensor-V1 #87] (Eterna round: R97, puzzle: Sensor, turn-off variant 1)”, the “apparent KD of MS2 coat protein” value (input ligand: FMN 200 uM) was 209 nM and the “apparent KD of MS2 coat protein” value (input ligand: none) is 351 nM.

Turning to “AUCGUGCAGCAAAGCUGUACGAGUACAUGAGGAUCACCCAUGUAGGAUAUGGUACGCAAAGCGUGCUAGAAGGAUAUGAGAUUA [Mat - Exclusion NG 3 - Mod of JL - D97] (Eterna round: R96, puzzle: Exclusion NG 3)”, the “apparent KD of MS2 coat protein” value runs as follows: (input ligand: FMN 200 uM) 38.1 nM; under setting [4], 32.6 nM; (input ligand: none) 57.7 nM.

For “UAUUAUCAAGCAAGAUCCCACAUGAGGAUCACCCAUGUGCUCGUCUUAUUUCUGUCCUUAUUGUUCUCUCGUCUAAU [JR_STOV1_v2_Sub096] (Eterna round: R97, puzzle: Sensor, turn-off variant 1)”, the “apparent KD of MS2 coat protein” value was determined as 41.8 nM (input ligand: FMN 200 uM) and 39.9 nM (input ligand: none).

Turning to “UAUUAUCAAGCAAGAUCCCACAUGAGGAUCACCCAUGUGCUCGUCUUAUUUCCGGAAUUAUUGGGCUCUCGUCUAAU [JR_STOV1_Sub093] (Eterna round: R97, puzzle: Sensor, turn-off variant 1)”, the “apparent KD of MS2 coat protein” value reads like this: (input ligand: FMN 200 uM) 90.1 nM; (input ligand: none) 78.2 nM.

As to “GCCGAAAAAGUGAGGAUAUACCUAUGGAAACAUAGGUAGAAGGCACAUGAGGAUCACCCAUGUAUCCUAACGGC [Mat - Exclusion 4 - Eli Mod - D28] (Eterna round: R97, puzzle: Brourd's mod of Exclusion 4)”, the “apparent KD of MS2 coat protein” value came out at 268 nM (input ligand: FMN 200 uM) and 28.5 nM (input ligand: none).

Take “CAUUAUUAUCGAGGAUAUCCUAUUGUAAUUCUGGGAGAAGGCGGACUCAACAUGAGGAUCACCCAUGUAAGACGGGUGCUAGAG [Ex NG1 #24] (Eterna round: R96, puzzle: Exclusion NG 1)”: the “apparent KD of MS2 coat protein” value is 306 nM (input ligand: FMN 200 uM), 236 nM under setting [4] and 276 nM (input ligand: none).

Turning to “CGAUGCAAAGUAAGGAUAUGCUUCCGGAAACGGAGGCAGAAGGUACAUGAGGAUCACCCAUGUUAAAAGCAUCG [Explosion 3 - Jieux - Brourd's mod of Exclusion 4] (Eterna round: R97, puzzle: Brourd's mod of Exclusion 4)”, the “apparent KD of MS2 coat protein” value was 16.3 nM (input ligand: FMN 200 uM) and 14.2 nM (input ligand: none).

Turning to “UUGGUUGUGGUAGGAUAUCCGUUGGAAACCGUCGGAGAAGGACCACAGUCACUGGGUCCUUGUCUGGUGGACUGGAAUCACCAU [pwkr exNG1 F6.15] (Eterna round: R96, puzzle: Exclusion NG 1)”, the “apparent KD of MS2 coat protein” value by setting is: (input ligand: FMN 200 uM) 153 nM; under setting [4], 172 nM; (input ligand: none) 184 nM.

On to “UGUACUAACACGGAAGUGUUAGUACUAUAAGCUUGUGUUACAUGAGGAUCACCCAUGUCCUCAUAAGCUCGUCUUAU [Mat - Sensor v3 - Turn-off var 2 - D74] (puzzle: Sensor v3, turn-off variant 2)”, for which the “apparent KD of MS2 coat protein” value reads like this: under setting [1], 157 nM; under setting [2], 53.6 nM; under setting [3], 172 nM.

Take “GAAAUCGAAGGAUAUCCGGGUGUCCACAUGAGGAUCACCCAUGUACUGGCCAAUAGCCAGGGAGAAGGUCGCCCAA [EX5 A.3] (Eterna round: R97, puzzle: Exclusion 5)”: the “apparent KD of MS2 coat protein” value (input ligand: FMN 200 uM) was determined as 131 nM and the “apparent KD of MS2 coat protein” value (input ligand: none) was 104 nM.

On to “GACUGCUGAGGAUAUACAUGAGGAUCACCCAUGUGCUUCAGCAUCGAAAGAUGCAUUGGUAGAAGGUAGUAGUC [LRO-Excl3-06] (puzzle: Exclusion 3)”, for which, under setting [2], the “apparent KD of MS2 coat protein” value worked out at 10.9 nM.

Take “UCAUGGAAGCAGGAUAUGCUUGUUUAAUUGUUUGCAGAAGGGCUAACAUGAGGAUCACCCAUGUAAGAGGUCUA [JR_E6_Sub063] (puzzle: Exclusion 6)”: the “apparent KD of MS2 coat protein” value under setting [2] came out at 35.3 nM.

“UACCGGCGGACCGAGGCUUUUUGCUCGUCUUGUACUACAACAUGAGGAUCACCCAUGUGGUGGUGGUCCGUUGUAGU [JL ViennaUCT Bitein mod 6] (puzzle: Sensor v3, turn-off variant 2)”: the “apparent KD of MS2 coat protein” value stood at 18.9 nM under setting [1], 8.16 nM under setting [2] and 25.4 nM under setting [3].

“UCUGGUCGGAAGGAUAUGGUCGGGUCAAAUCGGCCAGAAGGUCUGACAUGAGGAUCACCCAUGUGAGUCCAAAG [Esceus] (puzzle: Exclusion 6)”: the “apparent KD of MS2 coat protein” value under setting [1] was 51.7 nM, the “apparent KD of MS2 coat protein” value under setting [2] came to 21.6 nM and the “apparent KD of MS2 coat protein” value under setting [3] is 20.8 nM.

In the case of “UCUGGUCGAGGAUAUACGUGAGGUGCUUCGGCACCAGGUCUACAUGAGGAUCACCCAUGUAGAAGGCGACCAGA [EX2 #61] (Eterna round: R97, puzzle: Exclusion 2)”, the “apparent KD of MS2 coat protein” value (input ligand: FMN 200 uM) is 62.1 nM and the “apparent KD of MS2 coat protein” value (input ligand: none) was found to be 16.7 nM.
